Laboratory results from patent US20140105889A1 (published 2014).

Target: T1, human FcγRIIIa(F) (human, UniProt P08637 17-208, limits assumed)
T1 construct: also called FcgRIIIaF; FcγRIIIa allotype F158
Assay: SPR (Biacore), captured antibody, FcγR analyte; bound amount relative to GpH7-B3/GpL16-k0 x100;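 further: receptor response divided by the antibody amount captured on the chip before comparison with the reference antibody, measured at 25 °C in HBS-EP+ running buffer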
Experimental: Interaction between each modified antibody and Fcγ receptor prepared in the manner described above was analyzed using the Biacore T100 (GE Healthcare), Biacore T200 (GE Healthcare), Biacore A100 or Biacore 4000. HBS-EP+ (GE Healthcare) was used for the running buffer, and measurements were carried out at 25° C. The chips used were chips in which antigen peptides, Protein A (Thermo Scientific), Protein A/G (Thermo Scientific) or Protein L (ACTIGEN or BioVision) were immobilized on the Series S Sensor Chip CM5 (GE Healthcare) or Series S Sensor Chip CM4 (GE Healthcare) by amine coupling, or chips in which preliminarily biotinylated antigen peptides were allowed to interact and then immobilized on the Series S Sensor Chip SA (certified) (GE Healthcare). The target antibodies were captured on these sensor chips, Fcγ receptor diluted with the running buffer was allowed to interact, followed by measurement of the amount of bound antibody. The amounts bound were compared between antibodies. However, since the amount of Fcγ receptor bound depends on the amount of captured antibody, the values used for comparison were first corrected by dividing the amount of Fcγ receptor bound by the captured amount of each antibody. Through reaction with 10 mM glycine-HCl at pH 1.5, the sensor chips were regenerated by washing off antibody captured on the sensor chips and used repeatedly.
Binding strength was evaluated according to the following method based on the results of analyzing the interaction with each FcγR. […] That value was then further multiplied by 100, and the resulting value was used as an indicator of relative binding activity to each FcγR.

T1 sequence (P08637 other isoform, or with tags, fused parts or gaps limits assumed): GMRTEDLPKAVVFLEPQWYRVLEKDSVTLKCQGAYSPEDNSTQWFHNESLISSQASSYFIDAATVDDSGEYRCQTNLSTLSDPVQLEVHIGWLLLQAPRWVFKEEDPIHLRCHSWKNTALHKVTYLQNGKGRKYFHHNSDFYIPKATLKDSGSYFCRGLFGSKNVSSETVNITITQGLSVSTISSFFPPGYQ

Binder	relative binding activity
GpH7-B3/GpL16-k0 with L328H introduced into GpH7-B3 (antibody, human IgG1, Anti-glypican-3 human IgG1; constant region B3 (G1d with K439E); Fc variant; also called B3 variant; copies: 2 + 2) heavy: not shown light: DIVMTQSPLSLPVTPGEPASISCQASESLVHSNRNTYLHWYLQKPGQSPQLLIYKVSNRFSGVPDRFSGSGSGTDFTLKISRVEAEDVGVYYCSQNTHVPPTFGQGTKVEIE	13 % of GpH7-B3/GpL16-k0
GpH7-B3/GpL16-k0 with L328K introduced into GpH7-B3 (antibody, human IgG1, Anti-glypican-3 human IgG1; constant region B3 (G1d with K439E); Fc variant; also called B3 variant; copies: 2 + 2) heavy: not shown light: DIVMTQSPLSLPVTPGEPASISCQASESLVHSNRNTYLHWYLQKPGQSPQLLIYKVSNRFSGVPDRFSGSGSGTDFTLKISRVEAEDVGVYYCSQNTHVPPTFGQGTKVEIE	0 % of GpH7-B3/GpL16-k0
GpH7-B3/GpL16-k0 with N325G introduced into GpH7-B3 (antibody, human IgG1, Anti-glypican-3 human IgG1; constant region B3 (G1d with K439E); Fc variant; also called B3 variant; copies: 2 + 2) heavy: not shown light: DIVMTQSPLSLPVTPGEPASISCQASESLVHSNRNTYLHWYLQKPGQSPQLLIYKVSNRFSGVPDRFSGSGSGTDFTLKISRVEAEDVGVYYCSQNTHVPPTFGQGTKVEIE	1 % of GpH7-B3/GpL16-k0
GpH7-B3/GpL16-k0 with L328R introduced into GpH7-B3 (antibody, human IgG1, Anti-glypican-3 human IgG1; constant region B3 (G1d with K439E); Fc variant; also called B3 variant; copies: 2 + 2) heavy: not shown light: DIVMTQSPLSLPVTPGEPASISCQASESLVHSNRNTYLHWYLQKPGQSPQLLIYKVSNRFSGVPDRFSGSGSGTDFTLKISRVEAEDVGVYYCSQNTHVPPTFGQGTKVEIE	-1 % of GpH7-B3/GpL16-k0
GpH7-B3/GpL16-k0 with L328N introduced into GpH7-B3 (antibody, human IgG1, Anti-glypican-3 human IgG1; constant region B3 (G1d with K439E); Fc variant; also called B3 variant; copies: 2 + 2) heavy: not shown light: DIVMTQSPLSLPVTPGEPASISCQASESLVHSNRNTYLHWYLQKPGQSPQLLIYKVSNRFSGVPDRFSGSGSGTDFTLKISRVEAEDVGVYYCSQNTHVPPTFGQGTKVEIE	22 % of GpH7-B3/GpL16-k0
GpH7-B3/GpL16-k0 with N325H introduced into GpH7-B3 (antibody, human IgG1, Anti-glypican-3 human IgG1; constant region B3 (G1d with K439E); Fc variant; also called B3 variant; copies: 2 + 2) heavy: not shown light: DIVMTQSPLSLPVTPGEPASISCQASESLVHSNRNTYLHWYLQKPGQSPQLLIYKVSNRFSGVPDRFSGSGSGTDFTLKISRVEAEDVGVYYCSQNTHVPPTFGQGTKVEIE	37 % of GpH7-B3/GpL16-k0
GpH7-B3/GpL16-k0 with N325F introduced into GpH7-B3 (antibody, human IgG1, Anti-glypican-3 human IgG1; constant region B3 (G1d with K439E); Fc variant; also called B3 variant; copies: 2 + 2) heavy: not shown light: DIVMTQSPLSLPVTPGEPASISCQASESLVHSNRNTYLHWYLQKPGQSPQLLIYKVSNRFSGVPDRFSGSGSGTDFTLKISRVEAEDVGVYYCSQNTHVPPTFGQGTKVEIE	-1 % of GpH7-B3/GpL16-k0
GpH7-B3/GpL16-k0 with N325I introduced into GpH7-B3 (antibody, human IgG1, Anti-glypican-3 human IgG1; constant region B3 (G1d with K439E); Fc variant; also called B3 variant; copies: 2 + 2) heavy: not shown light: DIVMTQSPLSLPVTPGEPASISCQASESLVHSNRNTYLHWYLQKPGQSPQLLIYKVSNRFSGVPDRFSGSGSGTDFTLKISRVEAEDVGVYYCSQNTHVPPTFGQGTKVEIE	1 % of GpH7-B3/GpL16-k0
GpH7-B3/GpL16-k0 with N325A introduced into GpH7-B3 (antibody, human IgG1, Anti-glypican-3 human IgG1; constant region B3 (G1d with K439E); Fc variant; also called B3 variant; copies: 2 + 2) heavy: not shown light: DIVMTQSPLSLPVTPGEPASISCQASESLVHSNRNTYLHWYLQKPGQSPQLLIYKVSNRFSGVPDRFSGSGSGTDFTLKISRVEAEDVGVYYCSQNTHVPPTFGQGTKVEIE	6 % of GpH7-B3/GpL16-k0
GpH7-B3/GpL16-k0 with L328P introduced into GpH7-B3 (antibody, human IgG1, Anti-glypican-3 human IgG1; constant region B3 (G1d with K439E); Fc variant; also called B3 variant; copies: 2 + 2) heavy: not shown light: DIVMTQSPLSLPVTPGEPASISCQASESLVHSNRNTYLHWYLQKPGQSPQLLIYKVSNRFSGVPDRFSGSGSGTDFTLKISRVEAEDVGVYYCSQNTHVPPTFGQGTKVEIE	3 % of GpH7-B3/GpL16-k0

Next, values leading:

relative binding activity	Binder
10 % of GpH7-B3/GpL16-k0	GpH7-B3/GpL16-k0 with N325T introduced into GpH7-B3 (antibody, human IgG1, Anti-glypican-3 human IgG1; constant region B3 (G1d with K439E); Fc variant; also called B3 variant; copies: 2 + 2) heavy: not shown light: DIVMTQSPLSLPVTPGEPASISCQASESLVHSNRNTYLHWYLQKPGQSPQLLIYKVSNRFSGVPDRFSGSGSGTDFTLKISRVEAEDVGVYYCSQNTHVPPTFGQGTKVEIE
-2 % of GpH7-B3/GpL16-k0	GpH7-B3/GpL16-k0 with N325W introduced into GpH7-B3 (antibody, human IgG1, Anti-glypican-3 human IgG1; constant region B3 (G1d with K439E); Fc variant; also called B3 variant; copies: 2 + 2) heavy: not shown light: DIVMTQSPLSLPVTPGEPASISCQASESLVHSNRNTYLHWYLQKPGQSPQLLIYKVSNRFSGVPDRFSGSGSGTDFTLKISRVEAEDVGVYYCSQNTHVPPTFGQGTKVEIE
-1 % of GpH7-B3/GpL16-k0	GpH7-B3/GpL16-k0 with P329H introduced into GpH7-B3 (antibody, human IgG1, Anti-glypican-3 human IgG1; constant region B3 (G1d with K439E); Fc variant; also called B3 variant; copies: 2 + 2) heavy: not shown light: DIVMTQSPLSLPVTPGEPASISCQASESLVHSNRNTYLHWYLQKPGQSPQLLIYKVSNRFSGVPDRFSGSGSGTDFTLKISRVEAEDVGVYYCSQNTHVPPTFGQGTKVEIE
-2 % of GpH7-B3/GpL16-k0	GpH7-B3/GpL16-k0 with N325K introduced into GpH7-B3 (antibody, human IgG1, Anti-glypican-3 human IgG1; constant region B3 (G1d with K439E); Fc variant; also called B3 variant; copies: 2 + 2) heavy: not shown light: DIVMTQSPLSLPVTPGEPASISCQASESLVHSNRNTYLHWYLQKPGQSPQLLIYKVSNRFSGVPDRFSGSGSGTDFTLKISRVEAEDVGVYYCSQNTHVPPTFGQGTKVEIE
2 % of GpH7-B3/GpL16-k0	GpH7-B3/GpL16-k0 with P329I introduced into GpH7-B3 (antibody, human IgG1, Anti-glypican-3 human IgG1; constant region B3 (G1d with K439E); Fc variant; also called B3 variant; copies: 2 + 2) heavy: not shown light: DIVMTQSPLSLPVTPGEPASISCQASESLVHSNRNTYLHWYLQKPGQSPQLLIYKVSNRFSGVPDRFSGSGSGTDFTLKISRVEAEDVGVYYCSQNTHVPPTFGQGTKVEIE
0 % of GpH7-B3/GpL16-k0	GpH7-B3/GpL16-k0 with P329F introduced into GpH7-B3 (antibody, human IgG1, Anti-glypican-3 human IgG1; constant region B3 (G1d with K439E); Fc variant; also called B3 variant; copies: 2 + 2) heavy: not shown light: DIVMTQSPLSLPVTPGEPASISCQASESLVHSNRNTYLHWYLQKPGQSPQLLIYKVSNRFSGVPDRFSGSGSGTDFTLKISRVEAEDVGVYYCSQNTHVPPTFGQGTKVEIE
0 % of GpH7-B3/GpL16-k0	GpH7-B3/GpL16-k0 with P329M introduced into GpH7-B3 (antibody, human IgG1, Anti-glypican-3 human IgG1; constant region B3 (G1d with K439E); Fc variant; also called B3 variant; copies: 2 + 2) heavy: not shown light: DIVMTQSPLSLPVTPGEPASISCQASESLVHSNRNTYLHWYLQKPGQSPQLLIYKVSNRFSGVPDRFSGSGSGTDFTLKISRVEAEDVGVYYCSQNTHVPPTFGQGTKVEIE
-1 % of GpH7-B3/GpL16-k0	GpH7-B3/GpL16-k0 with P329K introduced into GpH7-B3 (antibody, human IgG1, Anti-glypican-3 human IgG1; constant region B3 (G1d with K439E); Fc variant; also called B3 variant; copies: 2 + 2) heavy: not shown light: DIVMTQSPLSLPVTPGEPASISCQASESLVHSNRNTYLHWYLQKPGQSPQLLIYKVSNRFSGVPDRFSGSGSGTDFTLKISRVEAEDVGVYYCSQNTHVPPTFGQGTKVEIE
5 % of GpH7-B3/GpL16-k0	GpH7-B3/GpL16-k0 with N325Y introduced into GpH7-B3 (antibody, human IgG1, Anti-glypican-3 human IgG1; constant region B3 (G1d with K439E); Fc variant; also called B3 variant; copies: 2 + 2) heavy: not shown light: DIVMTQSPLSLPVTPGEPASISCQASESLVHSNRNTYLHWYLQKPGQSPQLLIYKVSNRFSGVPDRFSGSGSGTDFTLKISRVEAEDVGVYYCSQNTHVPPTFGQGTKVEIE
2 % of GpH7-B3/GpL16-k0	GpH7-B3/GpL16-k0 with N325V introduced into GpH7-B3 (antibody, human IgG1, Anti-glypican-3 human IgG1; constant region B3 (G1d with K439E); Fc variant; also called B3 variant; copies: 2 + 2) heavy: not shown light: DIVMTQSPLSLPVTPGEPASISCQASESLVHSNRNTYLHWYLQKPGQSPQLLIYKVSNRFSGVPDRFSGSGSGTDFTLKISRVEAEDVGVYYCSQNTHVPPTFGQGTKVEIE
0 % of GpH7-B3/GpL16-k0	GpH7-B3/GpL16-k0 with N325P introduced into GpH7-B3 (antibody, human IgG1, Anti-glypican-3 human IgG1; constant region B3 (G1d with K439E); Fc variant; also called B3 variant; copies: 2 + 2) heavy: not shown light: DIVMTQSPLSLPVTPGEPASISCQASESLVHSNRNTYLHWYLQKPGQSPQLLIYKVSNRFSGVPDRFSGSGSGTDFTLKISRVEAEDVGVYYCSQNTHVPPTFGQGTKVEIE
0 % of GpH7-B3/GpL16-k0	GpH7-B3/GpL16-k0 with P329L introduced into GpH7-B3 (antibody, human IgG1, Anti-glypican-3 human IgG1; constant region B3 (G1d with K439E); Fc variant; also called B3 variant; copies: 2 + 2) heavy: not shown light: DIVMTQSPLSLPVTPGEPASISCQASESLVHSNRNTYLHWYLQKPGQSPQLLIYKVSNRFSGVPDRFSGSGSGTDFTLKISRVEAEDVGVYYCSQNTHVPPTFGQGTKVEIE
3 % of GpH7-B3/GpL16-k0	GpH7-B3/GpL16-k0 with P329N introduced into GpH7-B3 (antibody, human IgG1, Anti-glypican-3 human IgG1; constant region B3 (G1d with K439E); Fc variant; also called B3 variant; copies: 2 + 2) heavy: not shown light: DIVMTQSPLSLPVTPGEPASISCQASESLVHSNRNTYLHWYLQKPGQSPQLLIYKVSNRFSGVPDRFSGSGSGTDFTLKISRVEAEDVGVYYCSQNTHVPPTFGQGTKVEIE
-1 % of GpH7-B3/GpL16-k0	GpH7-B3/GpL16-k0 with P329Q introduced into GpH7-B3 (antibody, human IgG1, Anti-glypican-3 human IgG1; constant region B3 (G1d with K439E); Fc variant; also called B3 variant; copies: 2 + 2) heavy: not shown light: DIVMTQSPLSLPVTPGEPASISCQASESLVHSNRNTYLHWYLQKPGQSPQLLIYKVSNRFSGVPDRFSGSGSGTDFTLKISRVEAEDVGVYYCSQNTHVPPTFGQGTKVEIE
-1 % of GpH7-B3/GpL16-k0	GpH7-B3/GpL16-k0 with N325R introduced into GpH7-B3 (antibody, human IgG1, Anti-glypican-3 human IgG1; constant region B3 (G1d with K439E); Fc variant; also called B3 variant; copies: 2 + 2) heavy: not shown light: DIVMTQSPLSLPVTPGEPASISCQASESLVHSNRNTYLHWYLQKPGQSPQLLIYKVSNRFSGVPDRFSGSGSGTDFTLKISRVEAEDVGVYYCSQNTHVPPTFGQGTKVEIE
